In the supplement of paper PMC7125110:
± gives the standard error. For some of these results: Variants at the floor of the assay were thinned out.

B1: glmS ribozyme (parent)
chain: AUAAAAGCGCCAGAACUACAGAAAUGUAGUUGACGAGGAGGAGGUUUAUCGAAUUUUCGGCGGAUGCCUCCAAA

Legend:
Details in all cases: with glucosamine-6-phosphate
[1] = variants of: B1; experiment: kcat; higher = faster cleavage; RNA array
Outline: (§1)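 Tiles bearing barcoded ribozyme variants, transcribed in situ by E. coli RNA polymerase on sequenced MiSeq chips, were imaged over ~14 h at 37 °C using a hybridised Cy3 probe. Glucosamine-6-phosphate was supplied at 40 μM to 10 mM in HEPES/KCl/Mg(OAc)2 buffer. kobs came from one- or two-exponential decay fits to normalised per-tile medians, and weighted Michaelis–Menten fits then provided kcat and KM.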

[2] = variants of: B1; experiment: KM; higher = weaker cofactor use; RNA array
Outline: as §1

[3] = variants of: B1; experiment: self-cleavage kobs at 40 uM GlcN6P; higher = faster cleavage; RNA array
Outline: as §1

[4] = variants of: B1; experiment: self-cleavage kobs at 640 uM GlcN6P; higher = faster cleavage; RNA array
Outline: as §1

[5] = variants of: B1; experiment: self-cleavage kobs at 2500 uM GlcN6P; higher = faster cleavage; RNA array
Outline: as §1

[6] = variants of: B1; experiment: self-cleavage kobs at 10000 uM GlcN6P; higher = faster cleavage; RNA array
Outline: as §1

[7] = variants of: B1; experiment: self-cleavage kobs at 160 uM GlcN6P; higher = faster cleavage; RNA array
Outline: as §1

A14C U65C
kcat [1]: 8.26e-05 ± 1.1e-05 s⁻¹ | KM [2]: 1220 ± 570 µM | self-cleavage kobs at 40 uM GlcN6P [3]: < 1e-05 s⁻¹ | self-cleavage kobs at 640 uM GlcN6P [4]: 3.59e-05 ± 1.4e-05 s⁻¹ | self-cleavage kobs at 2500 uM GlcN6P [5]: 4.9e-05 ± 1.1e-05 s⁻¹ | self-cleavage kobs at 10000 uM GlcN6P [6]: 7.7e-05 ± 1.2e-05 s⁻¹

A14U A15G
kcat [1]: 0.0123 ± 0.0018 s⁻¹ | KM [2]: 2410 ± 520 µM | self-cleavage kobs at 40 uM GlcN6P [3]: 0.000225 ± 4e-05 s⁻¹ | self-cleavage kobs at 160 uM GlcN6P [7]: 0.000672 ± 0.00015 s⁻¹ | self-cleavage kobs at 640 uM GlcN6P [4]: 0.00234 ± 0.00043 s⁻¹ | self-cleavage kobs at 2500 uM GlcN6P [5]: 0.0077 ± 0.0012 s⁻¹ | self-cleavage kobs at 10000 uM GlcN6P [6]: 0.00944 ± 0.0012 s⁻¹

A14U A15C
kcat [1]: 9.41e-05 ± 8.4e-06 s⁻¹ | KM [2]: 1880 ± 510 µM | self-cleavage kobs at 640 uM GlcN6P [4]: 3.12e-05 ± 1.3e-05 s⁻¹ | self-cleavage kobs at 2500 uM GlcN6P [5]: 5.02e-05 ± 9.3e-06 s⁻¹ | self-cleavage kobs at 10000 uM GlcN6P [6]: 8.11e-05 ± 1.1e-05 s⁻¹

A14G G60C
kcat [1]: 1.11e-05 ± 3.4e-06 s⁻¹

A14G C67G C71U
kcat [1]: 5.11e-05 ± 1.2e-05 s⁻¹ | self-cleavage kobs at 640 uM GlcN6P [4]: 9.52e-05 ± 3.5e-05 s⁻¹ | self-cleavage kobs at 2500 uM GlcN6P [5]: 5.17e-05 ± 1.4e-05 s⁻¹ | self-cleavage kobs at 10000 uM GlcN6P [6]: 4.43e-05 ± 1.3e-05 s⁻¹

A14G A48C
kcat [1]: 0.00102 ± 4.5e-05 s⁻¹ | KM [2]: 2630 ± 260 µM | self-cleavage kobs at 160 uM GlcN6P [7]: 5.84e-05 ± 1.5e-05 s⁻¹ | self-cleavage kobs at 640 uM GlcN6P [4]: 0.000205 ± 8.1e-05 s⁻¹ | self-cleavage kobs at 2500 uM GlcN6P [5]: 0.000509 ± 6.7e-05 s⁻¹ | self-cleavage kobs at 10000 uM GlcN6P [6]: 0.000803 ± 7.7e-05 s⁻¹

A14G U45A
kcat [1]: 0.077 ± 0.015 s⁻¹ | KM [2]: 1340 ± 310 µM | self-cleavage kobs at 40 uM GlcN6P [3]: 0.00233 ± 0.00047 s⁻¹ | self-cleavage kobs at 160 uM GlcN6P [7]: 0.00764 ± 0.0014 s⁻¹ | self-cleavage kobs at 640 uM GlcN6P [4]: 0.0331 ± 0.0099 s⁻¹ | self-cleavage kobs at 2500 uM GlcN6P [5]: 0.0452 ± 0.016 s⁻¹ | self-cleavage kobs at 10000 uM GlcN6P [6]: 0.0701 ± 0.026 s⁻¹

A14G C50G
kcat [1]: 4.1e-05 ± 7.6e-06 s⁻¹ | self-cleavage kobs at 2500 uM GlcN6P [5]: 4.52e-05 ± 2e-05 s⁻¹

A14G C50A
kcat [1]: 7.1e-05 ± 2e-06 s⁻¹ | KM [2]: 1890 ± 220 µM | self-cleavage kobs at 2500 uM GlcN6P [5]: 3.98e-05 ± 9.6e-06 s⁻¹ | self-cleavage kobs at 10000 uM GlcN6P [6]: 5.99e-05 ± 7e-06 s⁻¹

A14U C68A
kcat [1]: 2.98e-05 ± 1e-05 s⁻¹ | self-cleavage kobs at 2500 uM GlcN6P [5]: 3.98e-05 ± 1.4e-05 s⁻¹

A14C U54C
kcat [1]: 0.00767 ± 0.0019 s⁻¹ | KM [2]: 3550 ± 1100 µM | self-cleavage kobs at 40 uM GlcN6P [3]: 0.000111 ± 1.2e-05 s⁻¹ | self-cleavage kobs at 160 uM GlcN6P [7]: 0.000296 ± 4.4e-05 s⁻¹ | self-cleavage kobs at 640 uM GlcN6P [4]: 0.000989 ± 0.00014 s⁻¹ | self-cleavage kobs at 2500 uM GlcN6P [5]: 0.00305 ± 0.00048 s⁻¹ | self-cleavage kobs at 10000 uM GlcN6P [6]: 0.00592 ± 0.00066 s⁻¹

A14G G44U
kcat [1]: 0.00141 ± 0.00018 s⁻¹ | KM [2]: 4650 ± 840 µM | self-cleavage kobs at 160 uM GlcN6P [7]: 4.99e-05 ± 2e-05 s⁻¹ | self-cleavage kobs at 640 uM GlcN6P [4]: 0.000163 ± 2.5e-05 s⁻¹ | self-cleavage kobs at 2500 uM GlcN6P [5]: 0.000558 ± 0.0001 s⁻¹ | self-cleavage kobs at 10000 uM GlcN6P [6]: 0.000923 ± 0.00019 s⁻¹

A14U C58U
kcat [1]: 0.000114 ± 1.5e-05 s⁻¹ | KM [2]: 2600 ± 960 µM | self-cleavage kobs at 2500 uM GlcN6P [5]: 5.89e-05 ± 1.1e-05 s⁻¹ | self-cleavage kobs at 10000 uM GlcN6P [6]: 9.01e-05 ± 1e-05 s⁻¹

A14U C58G
kcat [1]: 0.000104 ± 9.8e-06 s⁻¹ | KM [2]: 1960 ± 710 µM | self-cleavage kobs at 640 uM GlcN6P [4]: 3.48e-05 ± 1.2e-05 s⁻¹ | self-cleavage kobs at 2500 uM GlcN6P [5]: 4.98e-05 ± 1.1e-05 s⁻¹ | self-cleavage kobs at 10000 uM GlcN6P [6]: 8.81e-05 ± 7.2e-06 s⁻¹

A14G U65G
kcat [1]: 0.00446 ± 0.00028 s⁻¹ | KM [2]: 3780 ± 310 µM | self-cleavage kobs at 40 uM GlcN6P [3]: 4.37e-05 ± 6.7e-06 s⁻¹ | self-cleavage kobs at 160 uM GlcN6P [7]: 0.000193 ± 2.1e-05 s⁻¹ | self-cleavage kobs at 640 uM GlcN6P [4]: 0.000633 ± 5.3e-05 s⁻¹ | self-cleavage kobs at 2500 uM GlcN6P [5]: 0.00182 ± 0.00016 s⁻¹ | self-cleavage kobs at 10000 uM GlcN6P [6]: 0.00321 ± 0.00033 s⁻¹
